This note sets out measurements from the nanobody polyreactivity screen of Harvey et al. (2022).

A short description of the series: yeast display, Sf9 membrane polyspecificity reagent, FACS + sequencing; frameworks hold sequencing errors. The method in brief: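 Nanobodies from a synthetic yeast display library (Saccharomyces cerevisiae BJ5465), induced 36–48 hours with galactose, were stained 1 hour at 4 °C with 10% biotinylated, detergent-solubilized Sf9 membrane reagent, enriched on streptavidin microbeads, then FACS-sorted. Anti-HA (expression) and streptavidin (reagent binding) fluorescence set low and high (top ~1%) gates. Polyreactivity labels come from the gate of origin. Genes were colony-PCR amplified, MiSeq 2 × 250 sequenced and filtered by CDR length.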
Consider “QVQLVESGGGLVQAGGSLRLSCAASGSTFFTNAMGWYRPAPGKERELVAAITINDGSTFYADSVKGRFTISRDNAKNSDYLQMNSLKPEDTAVYYCNTDGVDLYDYWGQGTQVTVSS”, for which the “polyreactivity (PSR sort gate)” value is reported as “low polyreactivity”.

Regarding “QVQLVESGGGLVQAGGSLRLSCAASGFTFLDYALGWYIQAPGKERELVASISSSGGSTRYADSVKGRFTISRDNAKNTVYLQMNSLKPEDTAVYYCNAQIAEVPNDYWGQGPQVTVSS”, the “polyreactivity (PSR sort gate)” value is “low polyreactivity”.

In the case of “QDQLVESGGGLVQAGGSLRLSCAASGITFDRYALGWYRQAPGKEREFVAAISWRGGSTYYADSVKGRFTISRDNAKNTVYLQMNSLKPEDTAVYYCAVGYYDHDYWYEYWGQGSQVTVSS”, the “polyreactivity (PSR sort gate)” value is “high polyreactivity”.

As to “QVQLVESAGGLVQAGGSLRLSCAASGLTYVPNAMGWYRQAPGKEREIVAAICNNGGRTYYADSVKGRFTISRDNAKNTVYLEMNSLKPEDTAVYYCAKYLSPGERHSYDYWGQGTQVTVSS”, the “polyreactivity (PSR sort gate)” value is “high polyreactivity”.

“QVQLVESGGGIVQAGGSLRLSSAASGSTFYAYTMGWYRQAPGKERELVAAISSGGGTYYADSVKGRFTISRDNAKNTVYLQMNSLKPEDTAVYYCNADWRVGRQLSKAKIPYDYWGQGTQVTVSS”: the “polyreactivity (PSR sort gate)” value is reported as “low polyreactivity”.

Turning to “QVQLVESGGGLVQAGGSLRLSCAASGSSFSWNAMGWYSQAPGKERELVAAISKRGTSTYYADSVKGRFTISRDNAKKTVYLQMNSLKPEDTAVYYCAARRYYGVYYAFYYWGQGTQVTVSS”, the “polyreactivity (PSR sort gate)” value is “high polyreactivity”.

In the case of “QVQHVESGGGLVQAGGSLLLSCAASGSIFEINAMGWYRQAPGKERELVADIRRGDSTNYADSVKGRFTNSRDNAKNTVYLQMNSLKPEDTAVYYCAARWRRSKYGVYPQRPYDYWGQGTQVTVSS”, the “polyreactivity (PSR sort gate)” value is given as “high polyreactivity”.

In the case of “QVQLVESGGGLVQAGGSLRLSCAASGRIFSYNTMGWYRQAPGKERELVAAISCSGGSTSYADSVKGRFTISRDNAKNTVYLQMNSLKPEDTAVYYCATGSKRNPFYRGNYWGQGTQVTVSS”, the “polyreactivity (PSR sort gate)” value is “low polyreactivity”.

For “QVQLVESGGGLVQAGGSLRLSCAASGRLFSYYAMGWYRPAPGKERELVAGISYRGGSTYYADSVKGRFTISRDNAKNTVYLQMNSLKPEDTAVYYCAARPYSYGQRSLRGYWGQGTQVTVSS”, the “polyreactivity (PSR sort gate)” value is listed as “high polyreactivity”.

Consider “QVQLVESGGGLVQAGGSLRLSCAASGFTFGGNAMGWYRQAPGKERELVAAISGRGGRTFYADSVKGRFTISRDNAKNTVYLQMNSLKPEDTGVYYCAAYYRYDVGAYDYWGQGTQVTVSS”, for which the “polyreactivity (PSR sort gate)” value is “high polyreactivity”.

Turning to “QVQLVESGGGLVQAGGSLRLSCAASGITFYGYAMGWYRQAPGKERELVARISRSGGSTYYADSVKGRFTISRDNAKNTVYLQMNSLKPEDTAVYYCAAGYGPSGYTRYYWGQGTQVTVSS”, the “polyreactivity (PSR sort gate)” value is “high polyreactivity”.

In the case of “QVQLVESGGGLVQAGGSLRLSCAASGFTFTGYAMGWYRQAPGKERELVAAISQSGGSTYADSVKGRFTISRDNAKNTVYLQMNSLKPEDTAVYYCAAVWFLLTEYDYWGQGTQVTVSS”, the “polyreactivity (PSR sort gate)” value is recorded as “low polyreactivity”.

On to “QVQLVESGGGLVQAGGSLRLSCAASGSTFPDNAMGWYRQAPGKERELVAAISFSSGSTYYADSVKGRFTISRDNAKNTVYLQMNSLKPEDTAVYYCAVANPSPYEWIAYYYWGQGTQVTVSS”, for which the “polyreactivity (PSR sort gate)” value was “low polyreactivity”.

Consider “QVQLVESGGGLVQAGGSLRLSCAASGNTFAQNTMGWYRQAPGKEREFVAGITFSGTGTYYADSVKGRFTISRDNAKNTVYLQMNSLKPEDTAVYYCAADTPTPGLFYWFYPHRGYWGQGTQVTVSS”, for which the “polyreactivity (PSR sort gate)” value was “low polyreactivity”.

“QVQLVESGGGLVQAGGSLRLSCAASGSIFSGYAMGWYRQAPGKERELVAAITGGGSTNYADSVKGRFTISRDNAKNTVYLQMTSLKPEDTAVYYCAAAPVSLPDYGYWGQGTQVTVSS”: the “polyreactivity (PSR sort gate)” value is on record as “low polyreactivity”.

For the sequence “QVQLVESGGGLVQAGGSLRLSCAASGLIFEGYAMGWYRQAPGKERELVAAISSAGSTYYADSVKGRFTISRDNAKNTVYLQMNSLKPEDTAVYYCNARRRRLVSYYYWGQGTQVTVSS”, the “polyreactivity (PSR sort gate)” value is “high polyreactivity”.

Turning to “QVQLVESGGGLFQAGGSLRLSCAASGSTFGRYAMGWYRQAPGTEREWLAAISRRGGSTYYADSVKGRFTISRDNAKNTVYLQMNSLKPEDSAVYYCATGYPIDLGREFDYWGQGFQVTVSS”, the “polyreactivity (PSR sort gate)” value is listed as “high polyreactivity”.

Regarding “QVQLVESGGGLVQAGGSLRFSCAASGSILYGYAIGWYRQAPGQETELVAAIRLTGGSTYYADSVKGRFTISRDNAKNTVYLQMNSLKPEDTAVYYCAAEYNLRNYWGDYWGQGTLVTVSS”, the “polyreactivity (PSR sort gate)” value is given as “low polyreactivity”.

Consider “QVQHVESGGGLVQAGGSLRLSCAASGITFNEYAMGWYRQAPGKEREFVAAISSSGARTYYADSVKGRFTISRDNAKNTVYLQMNSLKPEDTAVYYCAAVYRSWTSYNGRNYWGQGTQVTVSS”, for which the “polyreactivity (PSR sort gate)” value is “high polyreactivity”.

“QVQLVESGGGLVQAGGRLRLSCAASGFTFPWYTMGWYRQAPGKERELVAAISRSGGSTYYADSVKGRFTISRDNAKNTVYLQLNSLKPEDTAVYYCAAEQTRWPDITRYDYWGQGTQVTVSS”: the “polyreactivity (PSR sort gate)” value was “high polyreactivity”.

As for “QVQLVKSGGGLVQAGGSLRLSCAASGFIIPEYTMGWYRPAPGKERELVAAISGSGGSTYYADSVKGRFTISRDNAKNTVYLQMNSLKPEDTAVYYCAASYAVSRYLQTYAHAHGYWGQGTQVTVSS”, the “polyreactivity (PSR sort gate)” value is “low polyreactivity”.

As for “QVHLVESGGGLVQAGGRLRLSCAASGRTFFWYAMGWYRQAPGKEREFVAAITWRTGSTYYADSVKGRFTLSRDNAKNTVYLQMNSLKPEDTAVYYCAGEFPWSFATYYSWGQGTQVTVSS”, the “polyreactivity (PSR sort gate)” value was “high polyreactivity”.

With “QVQLVESGGGVVQAGGSLRLSCAASGYIYLVYAMGWYRQATGKETELVAAISSGGSTYYADSVKGRFTISRDNAKNTVYLQMNSLKPEDTSVYYCATAGLALYAFRDDYWGQGTQVTVSS”, the “polyreactivity (PSR sort gate)” value is listed as “low polyreactivity”.

Regarding “QVQLVESGGGLVQAGGSLRLSCAASGRIFYSNDMGWYRQAPGKERELVAGINYDGGSTYYADSVKGRFTISRDNPKNTVYLQINSLKPEDTAVNYCNVRQVGWFNTPGDYWGQGTQVTVSS”, the “polyreactivity (PSR sort gate)” value is recorded as “low polyreactivity”.

Consider “QVQLVESGGGLVQAGGSLRLSCAASGSIFRSNTMGWSRQAPGKERELVARISSTGGSTYYADSVKGRFTISRDNAKKTVYLQLNSLKPEDTAVYYCNKVRGINHLYDMNYWGQGTQVTVSS”, for which the “polyreactivity (PSR sort gate)” value is “high polyreactivity”.

In the case of “QVQLVESGGGLVQAGGSLRLSCAASGRNFYYNAMGWYRQAPGKERELVAVISGRGGSTYYADSVKGRFTISRDNAKNTVYLQMNSLKPEDTAVYYCAAGYTRPWRFTYYYWGQGTQVTVSS”, the “polyreactivity (PSR sort gate)” value is reported as “high polyreactivity”.

Take “QVQLQESGGSPVQAGGGLRLSCAASGYISVGSVMGWYRQAPSKERELVASIDQGANTNYADSVKGRFTISRDNAKNNVYLQMNSLKPEDTAVYYCATETTYILNYWGQGTQVTVSS”: the “polyreactivity (PSR sort gate)” value was “low polyreactivity”.

For the sequence “QVQLVESGGGLVQAGGSLRLSCAASGFTLGRYAMGWYRQAPGKERELVAAITGRGGTTYYADSVKGRFRISRDNAKNTVYLQMNSLKPEDTAVYYCAADTKLSYQWFDYWGQGTQVTVSS”, the “polyreactivity (PSR sort gate)” value is on record as “high polyreactivity”.

For the sequence “QVQLVESGGGLVQAGGSLRLSCAASGLTMTWNSMGWYRQAPGKERELVAAIRWRGSSTYYADSVKGRFTISRDNAKNTVYLQLNSLKPEDTAVYYCAAEPRYYHVGYEYDNWGQGTQVTVSS”, the “polyreactivity (PSR sort gate)” value is reported as “high polyreactivity”.

With “QVQLQESGGGLVKAGGSLRLSCAASGNISPRDAMGWYRQAPGEERDLVASNPYSAITYYADGVKGRYTISRDNAKNTVYLQMNSLKPEDTEVYYCAVYQFTYAVFPAYWGQGSQVTVSS”, the “polyreactivity (PSR sort gate)” value is “low polyreactivity”.
